{"source": "paper doi:10.1101/2023.07.25.550441", "about": "(bioRxiv, 2023)", "binders": {"B1": {"name": "S. cerevisiae UEV (domain or fragment)", "chain": "AVVNWLFKVIQPIYNDGRTTFHDSLALLDNFHSLRPRTRVFTHSDGTPQLLLSIYGTISTGEDGSSPHSIPVIMWVPSMYPVKPPFISINLENFDMNTISSSLPIQEYIDSNGWIALPILHCWDPAAMNLIMVVQELMSLLHEPPQDQAP"}}, "target": "Homo sapiens ubiquitin (human, UniProt P0CG48 1-76)", "assay": "SPR", "data": [{"binder": "B1", "values": [{"measurement": "Kd", "value": 37.9, "unit": "mM"}]}]}
